Reference: publication PMC3406685

Columns and labels:
Assay in all cases: real-time label-free cell adhesion
[1] = target: triple-helical peptide II-27-A (GVOGEA within (GPP)5 hosts)
[2] = target: Collagen Toolkit III peptide III-7
[3] = target: Collagen Toolkit II peptide II-27

adhesion relative to that on II-27 [1]: 40%
increase of adhesion on substitution of Mg2+ with Mn2+ [1]: 13%
increase of adhesion on substitution of Mg2+ with Mn2+ [2]: 26%
increase of adhesion on substitution of Mg2+ with Mn2+ [3]: 65%
Substance: integrin α1β1 on rat pheochromocytoma PC12 cells (from UniProt P18614 29-1180; P49134 21-799) (receptor)
